In test [1] the target is CD38 antigen (human-derived CD38 antigen protein) (human) (UniProt P28907). Kind of test: phage ELISA on coated CD38 antigen; control well (PVA) OD 0.13.
The target is the same in test [2]. Kind of test: phage ELISA on coated CD38 antigen; control well (PVA) OD 0.18.
The target is the same in test [3]. The test is described as follows: phage ELISA on coated CD38 antigen; control well (PVA) OD 0.05.
For test [4] the target is unchanged. The test is described as follows: phage ELISA on coated CD38 antigen; control well (PVA) OD 0.04.

Where a chain is given by its changes, count along the chain named.

B1: B5 alpaca antibody (anti-CD38 single-domain antibody) (VHH)
VHH: QVQLVESGGGLVQPGGSLRLSCTASGFRLDYYAIGWFRQAPGKEREAISCIDITGMHTNYGDSVMGRFTISRDDAKRTVYLQMNSLEAEDTGIYYCAPAQYAACSALGVKVSFTSWGQGTQVTVSP
Take B1: in test [1], the OD value of the antigen well (Pro) came out at 0.89 OD.

B2: B1 alpaca antibody (anti-CD38 single-domain antibody) (VHH)
VHH: QVQLVESGGGEVQPGGSLRLSCTASGFRLDYYAIGWFRRAPGKEREGIACIDITGIHTNYGDSVMGRFTISRDDRAVYLQMNNLEAGDTAIYYCAPARFSACSALDVKLSFTSWGQGTQVTVSS
As for B2, the OD value of the antigen well (Pro) in test [2] is 0.65 OD.

B3: B3 alpaca antibody (anti-CD38 single-domain antibody) (VHH)
VHH: QVQLVESGGGLVQAGGSLRLACTASGNIFASQVMNWYRQAPGSPRELVATITPGGRTTYADSAKGRFTVATDNAKATAYLQLTSLTPEDTGVYYCHVRLFPATDYWGQGTQVTVSS
B3 returned an OD value of the antigen well (Pro) in test [3] of 0.15 OD.

B4: B2 alpaca antibody (anti-CD38 single-domain antibody) (VHH)
VHH: QVQLVESGGGLVQPGGSLTLSCRASGFTLDYYAIGWFRQAPGKEREAIACIDITGFHTNYGDSVSGRFTISRDNAGTTVYLQMNSLEAEDTGIYYCAPARYAACSALDVKLSFTSWGQGTQVTVSS
B4: the OD value of the antigen well (Pro) in test [2] came out at 1.07 OD.

B5: B8 alpaca antibody (anti-CD38 single-domain antibody) (VHH)
VHH: B4 VHH with T19R, R23T, T28R
B5 returned an OD value of the antigen well (Pro) in test [4] of 1.77 OD.
